{"source": "paper PMC7461809", "biological_target": "EcoWI endonuclease", "assay": "SEC; analytical Superdex 200 10/300 GL, 4°C, 0.38 ml/min, 100 mM NaCl, 20 mM Tris-HCl pH 8, 1 mM DTT, 0.1 mM EDTA, 5% glycerol; purified EcoWI at 2.7 mg/ml; relative molecular weight from Kav against standard proteins"}
{"substance": "EcoWI endonuclease (enzyme)", "values": [{"measurement": "stoichiometry N", "value": 2}]}
